Key:
[1] = target: Mouse P-gp-ECL1&4-h18 (mouse) (UniProt P21447); experiment: flow cytometry on cells; UIC2 shift assay: HeLa cells incubated 5 min at 37 °C with DMSO or 20 µM cyclosporine A before UIC2 at saturated concentration (3 µg/100,000 cells), 30 min; FITC-labeled anti-mouse secondary antibody
[2] = target: Mouse P-gp-ECL13&4-h19 (mouse) (UniProt P21447); experiment: as above
[3] = target: Mouse P-gp-ECL1&4-h18 (mouse) (UniProt P21447); experiment: flow cytometry on cells; apparent Kd; HeLa cells expressing the P-gp variant (300,000 cells/assay) stained with UIC2 at 0.01 to 3 µg per 100,000 cells for 30 min at 37 °C; GraphPad Prism
[4] = target: Mouse P-gp-ECL13&4-h19 (mouse) (UniProt P21447); experiment: as above

## UIC2 monoclonal antibody
[1]
  fold increase of UIC2 binding after 20 µM cyclosporine A against DMSO: 1.4 to 1.7 fold
[2]
  fold increase of UIC2 binding after 20 µM cyclosporine A against DMSO: 1.2 to 1.4 fold
[3]
  Kd: 11.7 nM
[4]
  Kd: 5.1 nM

— paper PMC6109178
